Consider 17 molecules from patent US20260265385A1 (ANAPTYSBIO, published 2026).

Assay [1] addresses T1, recombinant human IL-2Rβ (extracellular domain, Ala1-Thr215) (human, UniProt P14784 27-240).
T1 construct: extracellular domain; Analyte in SPR; Ala1-Thr215 is counted on the mature protein; also called human LL-2Rβ; Human IL-2RB
T1 sequence (looked up): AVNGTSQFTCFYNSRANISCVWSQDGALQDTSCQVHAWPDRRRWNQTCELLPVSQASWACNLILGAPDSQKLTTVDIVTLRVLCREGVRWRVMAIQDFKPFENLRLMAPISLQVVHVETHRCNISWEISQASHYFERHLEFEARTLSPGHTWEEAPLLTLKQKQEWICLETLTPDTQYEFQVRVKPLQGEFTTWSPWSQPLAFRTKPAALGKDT
The assay can be described thus: SPR, antibody captured on Protein A chip. As to the method: (§1) Surface plasmon resonance (SPR) was used to determine the binding affinities. The M6-1625 and M10-1275 antibodies were captured onto a Cytiva Protein A Chip for 60 seconds at 0.5 μg/mL for 60 seconds. The antibodies were exposed to recombinant human LL-2Rβ or cynomolgus LL-2Rβ (corresponding to residues Ala1-Thr215 of the extracellular domains excluding the signal peptide) at typical concentrations ranging from 0.4 nM to 11 nM with typical 300 second associations and 1200 second dissociations using a BiacoreS200 instrument. Sensorgrams were fit globally using a 1:1 binding model in the Biacore T200 Evaluation Software to calculate on- and off-rates and KD values.
A general note: Surface plasmon resonance follows binding to a sensor surface in real time, without labels.

The target in assay [2] is T2, recombinant cynomolgus IL-2Rβ (extracellular domain, Ala1-Thr215) (cynomolgus, UniProt Q38J85 27-240).
T2 construct: extracellular domain; Analyte in SPR; also called cynomolgus LL-2Rβ; Cyno IL-2RB
T2 sequence (looked up): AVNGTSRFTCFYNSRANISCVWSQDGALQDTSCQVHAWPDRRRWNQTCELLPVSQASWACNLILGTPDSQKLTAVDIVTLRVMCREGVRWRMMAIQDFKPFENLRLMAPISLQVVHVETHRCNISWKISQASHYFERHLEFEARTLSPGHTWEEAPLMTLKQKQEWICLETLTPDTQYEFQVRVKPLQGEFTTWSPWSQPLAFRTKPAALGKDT
The assay can be described thus: SPR, antibody captured on Protein A chip. Here is the method: as §1

B1: APE15368 (antibody, V domains shown)
VH: QVQLVQSGAEVKKPGASVKVSCKVSGYTFTRFWIQWVRQAPGQGLEWMGEILPGSGSINHNEKFQGRVTMTRDTSTSTVYMELSSLRSEDTAVYYCTRHYGSFDYWGQGTTVTVSS
VL: DIQMTQSPSSLSASVGDRVTITCKASQNVGTDVAWYQQKPGKAPKSLIYSASYRYSGVPSRFSGSGSGTDFTLTISSLQPEDFATYFCHQYESYPFTFGQGTKLEIKR
notes: M6-p1625 series
The Kd is the free concentration of one partner at which half of the binding sites on the other are occupied at equilibrium, for simple one-to-one binding. Turning to B1, the Kd worked out at 0.0867 nM in assay [1] and 0.0783 nM in assay [2].

B2: APE15370 (antibody, V domains shown)
VH: QVQLVQSGAEVKKPGASVKVSCKVSGYTFSRYWIQWVRQAPGQGLEWMGEILPGSGSINHNEKFQGRVTMTRDTSTSTVYMELSSLRSEDTAVYYCTRHYGSFDYWGQGTTVTVSS
VL: DIQMTQSPSSLSASVGDRVTITCKASQNVGTDVAWYQQKPGKAPKSLIYSASYRYSGVPSRFSGSGSGTDFTLTISSLQPEDFATYFCHQYESYPFTFGQGTKLEIKR
notes: M6-p1625 series
Consider B2, for which the dissociation constant (Kd) in assay [1] turned out to be 0.11 nM; in assay [2] it was 0.0982 nM.

B3: APE15371 (antibody, V domains shown)
VH: QVQLVQSGAEVKKPGASIKVSCKASGYTFSRYWIQWVRQAPGQGLEWMGEILPGSGSINHNEKFQGRVTMTRDTSTSTVYMELSSLRSEDTAVYYCTRHYGSFDYWGQGTTVTVSS
VL: DIQMTQSPSSLSASVGDRVTITCKASQNVGTDVAWYQQKPGKAPKSLIYSASYRYSGVPSRFSGSGSGTDFTLTISSLQPEDFATYFCHQYESYPFTFGQGTKLEIKR
notes: M6-p1625 series
B3: the Kd amounted to 0.0917 nM in assay [1] and 0.0821 nM in assay [2].

B4: APE15369 (antibody, V domains shown)
VH: QVQLVQSGAEVKKPGASIKVSCKASGYTFTRFWIQWVRQAPGQGLEWMGEILPGSGSINHNEKFQGRVTMTRDTSTSTVYMELSSLRSEDTAVYYCTRHYGSFDYWGQGTTVTVSS
VL: DIQMTQSPSSLSASVGDRVTITCKASQNVGTDVAWYQQKPGKAPKSLIYSASYRYSGVPSRFSGSGSGTDFTLTISSLQPEDFATYFCHQYESYPFTFGQGTKLEIKR
notes: M6-p1625 series
B4: the equilibrium dissociation constant (Kd) is 0.0674 nM in assay [1] and 0.0634 nM in assay [2].

B5: APE14970 (antibody, V domains shown)
VH: EVQLVQSGAEVKKPGATVKISCKVSGFNFKDSLMHWVQQAPGKGLEWMGWIDSENGETEYAPGFQDRVTITADTSTDTAYMELSSLRSEDTAVYYCARGGPWFLSYWGQGTTVTVSS
VL: EIVMTQSPATLSVSPGERATLSCRASQIISNNLHWYQQKPGQAPRLLIIYGLQSISGIPARFSGSRSGTEFTLTISSLQSEDFAVYFCQQSNNWPWTFGQGTKLEIKR
notes: M10-1275 series
B5: the Kd in assay [1] turned out to be 0.074 nM; in assay [2], 0.014 nM.

B6: APE15035 (antibody, V domains shown)
VH: EVQLVQSGAEVKKPGATVKISCKVSGFNFKDSLMHWVQQAPGKGLEWMGWIDSESGETEYAPGFQDRVTITADTSTDTAYMELSSLRSEDTAVYYCARGGPWFLSYWGQGTTVTVSS
VL: EIVMTQSPATLSVSPGERATLSCRASQIISNNLHWYQQKPGQAPRLLIIYGLQSISGIPARFSGSRSGTEFTLTISSLQSEDFAVYFCQQSNNWPWTFGQGTKLEIKR
notes: M10-1275 series
Regarding B6, the figures for the equilibrium dissociation constant (Kd) in assay [1] and in assay [2] were 0.147 nM and 0.0194 nM, respectively.

B7: APE15053 (antibody, V domains shown)
VH: EVQLVQSGAEVKKPGATVKISCKVSGFNFKDSLMHWVQQAPGKGLEWMGWIDSENGETEYAPGFQDRVTITADTSTDTAYMELSSLRSEDTAVYYCARGGPWFLSYWGQGTTVTVSS
VL: EIVMTQSPATLSVSPGERATLSCRASQIISNNLHWYQQKPGQAPRLLIIYGLQSISGIPARFSGSRSGTEFTLTISSLQSEDFAVYFCQQSNNWPYTFGQGTKLEIKR
notes: M10-1275 series
As for B7, the values for the Kd in assay [1] and in assay [2] were 0.0915 nM and 0.0399 nM, respectively.

B8: APE14971 (antibody, V domains shown)
VH: EVQLVQSGAEVKKPGATVKISCKVSGFNFKDSLMHWVQQAPGKGLEWMGWIDSENGETEYAPGFQDRVTITADTSTDTAYMELSSLRSEDTAVYYCARGGPWFLSYWGQGTTVTVSS
VL: EIVMTQSPATLSVSPGERATLSCRASQIISNNLHWYQQKPGQAPRLLIYYGLQSISGIPARFSGSGSGTEFTLTISSLQSEDFAVYYCQQSNNWPWTFGQGTKLEIKR
notes: M10-1275 series
For the molecule B8, the Kd is 0.278 nM in assay [1] and 0.026 nM in assay [2].

B9: APE15038 (antibody, V domains shown)
VH: EVQLVQSGAEVKKPGATVKISCKVSGFNFKDSLIHWVQQAPGKGLEWMGWIDSENGETEYAPGFQDRVTITADTSTDTAYMELSSLRSEDTAVYYCARGGPWFLSYWGQGTTVTVSS
VL: EIVMTQSPATLSVSPGERATLSCRASQIISNNLHWYQQKPGQAPRLLIIYGLQSISGIPARFSGSRSGTEFTLTISSLQSEDFAVYFCQQSNNWPWTFGQGTKLEIKR
notes: M10-1275 series
For the molecule B9, the Kd in assay [1] came to 0.12 nM; in assay [2], 0.0185 nM.

B10: APE15036 (antibody, V domains shown)
VH: EVQLVQSGAEVKKPGATVKISCKVSGFNFKDSLVHWVQQAPGKGLEWMGWIDSENGETEYAPGFQDRVTITADTSTDTAYMELSSLRSEDTAVYYCARGGPWFLSYWGQGTTVTVSS
VL: EIVMTQSPATLSVSPGERATLSCRASQIISNNLHWYQQKPGQAPRLLIIYGLQSISGIPARFSGSRSGTEFTLTISSLQSEDFAVYFCQQSNNWPWTFGQGTKLEIKR
notes: M10-1275 series
Consider B10, for which the Kd came out at 0.165 nM in assay [1] and 0.0195 nM in assay [2].

B11: APE15034 (antibody, V domains shown)
VH: EVQLVQSGAEVKKPGATVKISCKVSGFNFKDSLMHWVQQAPGKGLEWMGWIDSETGETEYAPGFQDRVTITADTSTDTAYMELSSLRSEDTAVYYCARGGPWFLSYWGQGTTVTVSS
VL: EIVMTQSPATLSVSPGERATLSCRASQIISNNLHWYQQKPGQAPRLLIIYGLQSISGIPARFSGSRSGTEFTLTISSLQSEDFAVYFCQQSNNWPWTFGQGTKLEIKR
notes: M10-1275 series
As to B11, the figures for the Kd in assay [1] and in assay [2] were 0.19 nM and 0.0222 nM, respectively.

B12: APE15037 (antibody, V domains shown)
VH: EVQLVQSGAEVKKPGATVKISCKVSGFNFKDSLLHWVQQAPGKGLEWMGWIDSENGETEYAPGFQDRVTITADTSTDTAYMELSSLRSEDTAVYYCARGGPWFLSYWGQGTTVTVSS
VL: EIVMTQSPATLSVSPGERATLSCRASQIISNNLHWYQQKPGQAPRLLIIYGLQSISGIPARFSGSRSGTEFTLTISSLQSEDFAVYFCQQSNNWPWTFGQGTKLEIKR
notes: M10-1275 series
In the case of B12, the Kd in assay [1] was found to be 0.124 nM; in assay [2] it was 0.0171 nM.

B13: APE14969 (antibody, V domains shown)
VH: EVQLVQSGAEVKKPGATVKISCKVSGFNFKDSLMHWVQQAPGKGLEWMGWIDSENGETEYAPGFQDRVTITADTSTDTAYMELSSLRSEDTAVYYCARGGPWFLSYWGQGTTVTVSS
VL: EIVMTQSPATLSVSPGERATLSCRASQIISNNLHWYQQKPGQAPRLLIIYGLQSISGIPARFSGSGSGTEFTLTISSLQSEDFAVYFCQQSNNWPWTFGQGTKLEIKR
notes: M10-1275 series
Take B13: the values for the Kd in assay [1] and in assay [2] were 0.187 nM and 0.018 nM, respectively.

B14: APE15031 (antibody, V domains shown)
VH: EVQLVQSGAEVKKPGATVKISCKVSGFNFKDSLMHWVQQAPGKGLEWMGWIDSEHGETEYAPGFQDRVTITADTSTDTAYMELSSLRSEDTAVYYCARGGPWFLSYWGQGTTVTVSS
VL: EIVMTQSPATLSVSPGERATLSCRASQIISNNLHWYQQKPGQAPRLLIIYGLQSISGIPARFSGSRSGTEFTLTISSLQSEDFAVYFCQQSNNWPWTFGQGTKLEIKR
notes: M10-1275 series
Consider B14, for which the Kd in assay [1] stood at 0.108 nM; in assay [2] it was 0.0189 nM.

B15: APE15033 (antibody, V domains shown)
VH: EVQLVQSGAEVKKPGATVKISCKVSGFNFKDSLMHWVQQAPGKGLEWMGWIDSEQGETEYAPGFQDRVTITADTSTDTAYMELSSLRSEDTAVYYCARGGPWFLSYWGQGTTVTVSS
VL: EIVMTQSPATLSVSPGERATLSCRASQIISNNLHWYQQKPGQAPRLLIIYGLQSISGIPARFSGSRSGTEFTLTISSLQSEDFAVYFCQQSNNWPWTFGQGTKLEIKR
notes: M10-1275 series
On to B15, for which the Kd stood at 0.106 nM in assay [1] and 0.0128 nM in assay [2].

B16: APE15054 (antibody, V domains shown)
VH: EVQLVQSGAEVKKPGATVKISCKVSGFNFKDSLMHWVQQAPGKGLEWMGWIDSENGETEYAPGFQDRVTITADTSTDTAYMELSSLRSEDTAVYYCARGGPWFLSYWGQGTTVTVSS
VL: EIVMTQSPATLSVSPGERATLSCRASQIISNNLHWYQQKPGQAPRLLIIYGLQSISGIPARFSGSRSGTEFTLTISSLQSEDFAVYFCQQSNNWPFTFGQGTKLEIKR
notes: M10-1275 series
For B16, the Kd in assay [1] was 0.429 nM; in assay [2] it was 0.108 nM.

B17: APE15032 (antibody, V domains shown)
VH: EVQLVQSGAEVKKPGATVKISCKVSGFNFKDSLMHWVQQAPGKGLEWMGWIDSEAGETEYAPGFQDRVTITADTSTDTAYMELSSLRSEDTAVYYCARGGPWFLSYWGQGTTVTVSS
VL: EIVMTQSPATLSVSPGERATLSCRASQIISNNLHWYQQKPGQAPRLLIIYGLQSISGIPARFSGSRSGTEFTLTISSLQSEDFAVYFCQQSNNWPWTFGQGTKLEIKR
notes: M10-1275 series
For the molecule B17, the Kd in assay [1] is 0.0738 nM; in assay [2] it was 0.0124 nM.
